Results on one protein are retold here after paper PMC8286842, “The structures of E. coli NfsA bound to the antibiotic nitrofurantoin; to 1,4-benzoquinone and to FMN” (Biochemical Journal, 2021).

Type in all cases: biochemical, Escherichia coli
Substrate in data set [1]: CC1=CC(=O)c2ccccc2C1=O
As to the kind of experiment: purified protein. Conditions: FMN; pH 7.0; 25.0 °C.

Substrate in data set [2]: O=C1C=CC(=O)C=C1
In words: purified protein. Conditions: FMN active site, stacked on FMN; O2′ hydroxyl of FMN, backbone NH of Ser […], Gln […], close to Arg […]; a separate, additional quinol ring appears covalently attached at Cys […]; pH 7.0; 25.0 °C.

Substrate in data set [3]: O=C1CN(/N=C/c2ccc([N+](=O)[O-])o2)C(=O)N1
As to the kind of experiment: purified protein. Conditions: FMN active site, parallel to the FMN ring; hydrogen bonds involving Arg […], Lys […], Arg […] and Ser […]; pH 7.0; 25.0 °C.

Substrate in data set [4]: NC(=O)C1=CN([C@@H]2O[C@H](COP(=O)(O)OP(=O)(O)OC[C@H]3O[C@@H](n4cnc5c(N)ncnc54)[C@H](OP(=O)(O)O)[C@@H]3O)[C@@H](O)[C@H]2O)C=CC1
As to the kind of experiment: steady-state kinetics, purified enzyme (global ping-pong fit with nitrofurantoin). The settings on record: FMN; pH 7.0; 25.0 °C; varied: cofactor.

Substrate in data set [5]: NC(=O)c1cc(N2CC2)c([N+](=O)[O-])cc1[N+](=O)[O-]
As to the kind of experiment: steady-state kinetics of reduction by NADPH, purified enzyme. Conditions: FMN; pH 7.0; 25.0 °C.

Substrate in data set [6]: NC(=O)N/N=C/c1ccc([N+](=O)[O-])o1
Described as above. Conditions: FMN; pH 7.0; 25.0 °C.

Usually kcat stands for the number of substrate molecules converted per active site and unit of time at saturation. The term kcat/Km denotes the second-order rate constant that governs catalysis at low substrate concentration.

B1: NfsA (Escherichia coli K-12) (protein)
chain: MTPTIELICGHRSIRHFTDEPISEAQREAIINSARATSSSSFLQCSSIIRITDKALREELVTLTGGQKHVAQAAEFWVFCADFNRHLQICPDAQLGLAEQLLLGVVDTAMMAQNALIAAESLGLGGVYIGGLRNNIEAVTKLLKLPQHVLPLFGLCLGWPADNPDLKPRLPASILVHENSYQPLDKGALAQYDEQLAEYYLTRGSNNRRDTWSDHIRRTIIKESRPFILDYLHKQGWATR
notes: untagged, dimer
As to B1, the Km is reported as 11 ± 2 (Km app) µM in the data set “purified protein [1]”; 3 ± 0.4 (Km app) µM in the data set “purified protein [2]”; 20.6 ± 1.6 (Km) µM in “purified protein [3]”; 10.9 ± 1.6 (Km) µM in data set [4]; 190 ± 20 (Km) µM in data set [5]; 13 ± 2 (Km) µM in data set [6]. For the same protein, the kcat in the data set “purified protein [1]” was determined as 9 ± 0.4 s⁻¹; in the data set “purified protein [2]”, 24 ± 0.8 s⁻¹; in “purified protein [3]” it was 81 ± 3 s⁻¹; in data set [4], 81 ± 3 s⁻¹; in data set [5], 42 ± 1 s⁻¹; in data set [6] it was 29.6 ± 0.9 s⁻¹. Besides, the kcat/Km turned out to be 820000 ± 80000 M⁻¹ s⁻¹ in “purified protein [1]”; 8e+06 ± 800000 M⁻¹ s⁻¹ in “purified protein [2]”; 3.9e+06 ± 200000 M⁻¹ s⁻¹ in “purified protein [3]”; 7.4e+06 ± 1e+06 M⁻¹ s⁻¹ in data set [4]; 230000 ± 2000 M⁻¹ s⁻¹ in data set [5]; 2.3e+06 ± 200000 M⁻¹ s⁻¹ in data set [6].
